Assay [1] deals with DENV2 sE FGA02 L107C/A313C, disulfide-linked dimer (Dengue virus serotype 2, strain FGA02). Briefly: SEC.
Assay [2] concerns the target DENV2 sE FGA02 A259C, disulfide-linked dimer (Dengue virus serotype 2, strain FGA02). Briefly: SEC-MALS; sE alone, ~150 ug on Superdex 200 10/300 GL, Tris 50 mM, NaCl 500 mM (pH 8.0), 0.4 ml min^−1. (In general: In gel filtration, larger molecules generally elute earlier.)

The text below walks through data of article PMC5457521.

For the substance “DENV2 sE FGA02 L107C/A313C, disulfide-linked dimer (domain or fragment)”, the stoichiometry N (as a rule, a count of units in the complex or per binding partner) in assay [1] stood at 2. As to “DENV2 sE FGA02 A259C, disulfide-linked dimer (domain or fragment)”, the stoichiometry N in assay [2] turned out to be 2.
